# Results taken from paper doi:10.1101/852095 (bioRxiv, 2019).
# Molecular target: recombinant NPM1 (Nucleophosmin), probe of the protein array (human, UniProt P06748 1-294)
# Test: peptide or protein array
# Sequence of recombinant NPM1 (Nucleophosmin), probe of the protein array (P06748 whole entry): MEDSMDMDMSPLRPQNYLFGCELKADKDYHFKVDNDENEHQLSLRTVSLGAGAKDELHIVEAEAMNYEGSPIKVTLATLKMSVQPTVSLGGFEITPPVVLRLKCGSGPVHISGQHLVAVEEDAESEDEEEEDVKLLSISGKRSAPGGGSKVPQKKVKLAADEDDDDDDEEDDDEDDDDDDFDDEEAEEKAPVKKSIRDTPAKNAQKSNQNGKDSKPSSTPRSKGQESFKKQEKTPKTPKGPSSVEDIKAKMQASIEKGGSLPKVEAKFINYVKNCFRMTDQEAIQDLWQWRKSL
row,binding result,Binder
1,binds,"GTF2E2 (natural protein, human, UniProt P29084 1-291, looked up) MDPSLLRERELFKKRALSTPVVEKRSASSESSSSSSKKKKTKVEHGGSSGSKQNSDHSNGSFNLKALSGSSGYKFGVLAKIVNYMKTRHQRGDTHPLTLDEILDETQHLDIGLKQKQWLMTEALVNNPKIEVIDGKYAFKPKYNVRDKKALLRLLDQHDQRGLGGILLEDIEEALPNSQKAVKALGDQILFVNRPDKKKILFFNDKSCQFSVDEEFQKLWRSVTVDSMDEEKIEEYLKRQGISSMQESGPKKVAPIQRRKKPASQKKRRFKTHNEHLAGVLKDYSDITSSK"
2,binds,"MED11 (natural protein, human, UniProt Q9P086 1-117, looked up) MATYSLANERLRALEDIEREIGAILQNAGTVILELSKEKTNERLLDRQAAAFTASVQHVEAELSAQIRYLTQVATGQPHEGSSYSSRKDCQMALKRVDYARLKLSDVARTCEQMLEN"

# The next lines start with the binder.
row,Binder,binding result
1,"TAF9 (natural protein, human, UniProt Q16594 1-264, looked up) MESGKTASPKSMPKDAQMMAQILKDMGITEYEPRVINQMLEFAFRYVTTILDDAKIYSSHAKKATVDADDVRLAIQCRADQSFTSPPPRDFLLDIARQRNQTPLPLIKPYSGPRLPPDRYCLTAPNYRLKSLQKKASTSAGRITVPRLSVGSVTSRPSTPTLGTPTPQTMSVSTKVGTPMSLTGQRFTVQMPTSQSPAVKASIPATSAVQNVLINPSLIGSKNILITTNMMSSQNTANESSNALKRKREDDDDDDDDDDDYDNL",binds
2,"GTF2A2 (natural protein, human, UniProt P52657 1-109, looked up) MAYQLYRNTTLGNSLQESLDELIQSQQITPQLALQVLLQFDKAINAALAQRVRNRVNFRGSLNTYRFCDNVWTFVLNDVEFREVTELIKVDKVKIVACDGKNTGSNTTE",binds
3,"MED31 (natural protein, human, UniProt Q9Y3C7 1-131, looked up) MAAAVAMETDDAGNRLRFQLELEFVQCLANPNYLNFLAQRGYFKDKAFVNYLKYLLYWKDPEYAKYLKYPQCLHMLELLQYEHFRKELVNAQCAKFIDEQQILHWQHYSRKRMRLQQALAEQQQQNNTSGK",binds
